Results from publication PMC10667646.

Target: T1, His-Lmo2795 (RpiR-family transcriptional regulator) (Listeria monocytogenes) (UniProt Q8Y3P0)
T1 sequence: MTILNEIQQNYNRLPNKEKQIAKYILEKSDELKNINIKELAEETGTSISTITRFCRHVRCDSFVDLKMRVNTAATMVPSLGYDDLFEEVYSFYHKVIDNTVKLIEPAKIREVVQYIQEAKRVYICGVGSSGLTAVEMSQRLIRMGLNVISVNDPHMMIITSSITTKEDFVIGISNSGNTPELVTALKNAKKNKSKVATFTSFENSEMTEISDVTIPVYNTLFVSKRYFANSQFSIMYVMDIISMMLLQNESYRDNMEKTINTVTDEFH
Experiment: EMSA
Conditions: 10 mM Tris-HCl pH 7.5, 50 mM NaCl, 10% glycerol, 5 mM EDTA, 20 mM DTT, 25 C, 20 min; 8% native PAGE in 0.5x TBE at 4 C

## CGGAACACCCAACAAATTACCAATCGAATAAACTAAAAAAGTCCTTTCAAACGAAAGGACTTTTTATTTTTAACAACAACGTCATTTTTTAAAGCTAGTTTCCGCAACTATCCACGCTAAAATATGAAAATCATTTTCATTTAATCGATATTGATAAAATCATTTTCTTGTGATATAGTCTGTTTGAAAACGCATACTTTACACTGAAACACAGTATAGAGGAGGAGTATCAGTGGGCAATTCTGTTATGGAAAAAATCAAAGGTGGGTTAG (double strand) [lmo2795-nanE operon upstream (promoter) region]
  binding: binds

## CTTTAATATCCTCTAAGCCAGCATTTTTGATTTTTTTCTGTAGCACCGTCGCGCCCATTGCACTGGATCCAAGCCCCGCATCACAAGCATAGGCGATTCTTTTAACATTTTTAAAATTAAAATCATCTACTGGAGCTTCGAAAACAGAGGAAATACTACTTTTTTTGCCTTTAAGACCTTCCATTTTCTTCGCTGCATCTTG (double strand) [unspecific control, region within the lmo2795-nanE operon]
  binding: no binding
